Measured values as given in US7888090B2, “Mutants of O6-alkylguanine-DNA alkyltransferase” (Ecole Polytechnique Federale de Lausanne, priority 2004, dated 2011).

B1: PGEG-hAGT: an AGT containing the mutations Asn157Gly, Ser159Glu (Juillerat et al., Chem Biol 10:313-317, 2003) (protein, UniProt P16455 1-207, looked up, variant N157G S159E)
Methylated-DNA--protein-cystei …: MDKDCEMKRTTLDSPLGKLELSGCEQGLHEIKLLGKGTSAADAVEVPAPAAVLGGPEPLMQCTAWLNAYFHQPEAIEEFPVPALHHPVFQQESFTRQVLWKLLKVVKFGEVISYQQLAALAGNPKAARAVGGAMRGNPVPILIPCHRVVCSSGAVGGYEGGLAVKEWLLAHEGHRLGKPGLGGSSGLAGAWLKGAGATSGSPPAGRN
B2: Lys125Ala, Ala127Thr, Arg128Ala, Asn157Gly, Ser159Glu: hAGT mutant with the listed mutations, expressed as GST fusion (protein, UniProt P16455 1-207, looked up, variant K125A A127T R128A N157G S159E)
Methylated-DNA--protein-cystei …: MDKDCEMKRTTLDSPLGKLELSGCEQGLHEIKLLGKGTSAADAVEVPAPAAVLGGPEPLMQCTAWLNAYFHQPEAIEEFPVPALHHPVFQQESFTRQVLWKLLKVVKFGEVISYQQLAALAGNPAATAAVGGAMRGNPVPILIPCHRVVCSSGAVGGYEGGLAVKEWLLAHEGHRLGKPGLGGSSGLAGAWLKGAGATSGSPPAGRN
modifications: GST fusion
B3: AGT (Gly160Trp): Human AGT mutant Gly160Trp (Xu-Welliver et al.); expressed as AGT-NLS3 fusion (protein, UniProt P16455 1-207, looked up, variant G160W)
Methylated-DNA--protein-cystei …: MDKDCEMKRTTLDSPLGKLELSGCEQGLHEIKLLGKGTSAADAVEVPAPAAVLGGPEPLMQCTAWLNAYFHQPEAIEEFPVPALHHPVFQQESFTRQVLWKLLKVVKFGEVISYQQLAALAGNPKAARAVGGAMRGNPVPILIPCHRVVCSSGAVGNYSWGLAVKEWLLAHEGHRLGKPGLGGSSGLAGAWLKGAGATSGSPPAGRN
modifications: NLS3 fusion

How the values were obtained:
[1] = Reactivity towards N^9-modified O^6-benzylguanine derivatives (preblocking, BG-Cy3 assay); assay type: biochemical; conditions: 100 µM N^9-isobutyl-, N^9-propyl-, N^9-cyanomethyl-O^6-benzylguanine, 15 min
Description: FIG. 3: Reactivity of AGT mutants with N^9-modified BG derivatives. 10 µM AGTM (grey bars) or PGEG-hAGT (black bars) were preblocked with 100 µM N^9-modified BG derivatives (see list below), and subsequently labeled with 20 µM BG-Cy3. After 1 h reaction time, fluorescence intensity (FI) indicated in arbitrary units [a.u.] at 595 nm is measured. The black bold line is set at the reading for condition 1 corresponding to background fluorescence of the fluorophore not attached to protein. Values above this line indicate slow or incomplete reaction with N^9-modified BG-derivative. • 1 Fluorescence of BG-Cy3 without protein; background fluorescence. • 2 Reaction with BG-Cy3; no preblocking, positive control. • 3 Reaction with BG-Cy3, preblocked with 100 µM BG. • 4 Reaction with BG-Cy3, preblocked with 100 µM N^9-isobutyl-O^6-benzylguanine. • 5 Reaction with BG-Cy3, preblocked with 100 µM N^9-propyl-O^6-benzylguanine. • 6 Reaction with BG-Cy3, preblocked with 100 µM N^9-cyanomethyl-O^6-benzylguanine.
Reactivity of AGT towards N^9-modified O^6-benzylguanine derivatives: The experiment is based on the BG-Cy3 assay. Upon reaction of AGT with BG-Cy3, an increase of fluorescence emission intensity of Cy3 by a factor 2-3 can be observed. […]

[2] = test system: oligonucleotide SEQ ID NO:2 (modified in position 14); experiment: Reactivity against DNA-based substrates (BG-Cy3 assay with BG-modified oligonucleotide); assay type: biochemical; conditions: 0.5 µM (or more) BG-modified oligonucleotide
Description: The ability of wild type AGT or mutant AGT to react with alkylated DNA substrates is measured as the reaction of its inactivation by a synthetic oligonucleotide containing O^6-benzylguanine (SEQ ID NO:2, modified in position 14). Subsequently, the reactions are quenched by incubation with biotinylated O^6-alkylguanine. Samples are subjected to Western blotting and detection with streptavidin derivates to obtain kinetic constants for these substrates. Alternatively, the ability of wild type or mutant AGT to react with alkylated DNA substrates is measured via its labeling efficiency in competition with a fluorescent substrate of AGT. The reaction kinetics of AGT with BG-Cy3 (O^6-benzylguanine coupled to Cy3) is followed by fluorescence intensity measurements at various concentrations of a competing synthetic oligonucleotide containing O^6-benzylguanine (SEQ ID NO:2, modified in position 14).
Reactivity against DNA-based substrates measured with a BG-Cy3 assay: BG-Cy3 is prepared by reacting the previously described O^6-(4-aminomethyl-benzyl)guanine (Keppler et al., NatureBiotechnol. 21:86-89, 2003) with the commercially available N-hydroxysuccinimide ester of Cy3, (Cy3-NHS, Amersham). The coupling reaction is performed at ambient temperature in N,N-dimethylformamide in the presence of 1 eq. of triethylamine. The BG-Cy3 conjugate is purified by reversed-phase HPLC on a C18-column by using linear gradients from 0.1% trifluoroacetic acid to acetonitrile. After solvent evaporation BG-Cy3 is dissolved in dimethyl sulfoxide and stored at −20° C. For measuring the reactivity with DNA-based substrates, a reaction mixture containing different concentrations (0 to 5 µM) of oligonucleotide SEQ ID NO:2 (modified in position 14), GST-AGT fusion protein at 0.2 µM and BG-Cy3 at […] in reaction buffer (50 mM HEPES, pH 7.2, 1 mM DTT, 200 mg/ml BSA) is incubated in microtiterplates. Fluorescence of the Cy3 derivative (excitation 519 nm, emission at 572 nm) is measured on a Spectramax Gemini plate reader (Molecular Devices).

salmon sperm DNA = experiment: DNA binding as inhibition by DNA of the reaction with BG-Cy3; conditions: salmon sperm DNA 25 µg/ml
Description: (§1) The interaction with DNA is e.g. quantified by assessing the amount of copurified DNA from E. coli extracts under conditions of low salt and absence of DNase. This is compared between parallel purifications of fusion proteins (e.g. fusions to GST) of wild type (human) and mutant AGT by spectroscopic methods (ratio of absorbance at 260 and 280 nm). Alternatively the interaction of AGT with DNA is measured as the inhibition of AGT reactivity with BG-Cy3 (O^6-(4-aminomethyl-benzyl)-guanine coupled to Cy3) as substrate in the presence of DNA. This approach takes advantage of a marked increase of fluorescence of the Cy3 fluorophore upon reaction of BG-Cy3 with AGT. The reaction kinetics of AGT with a Cy3-labeled benzylguanine derivative is followed by fluorescence intensity measurements over several hours at various concentrations of salmon sperm DNA.
DNA binding: DNA binding is measured as inhibition by DNA of the reaction of AGT mutants with BG derivatives. The reaction rate of AGT mutants in a reaction mixture containing salmon sperm DNA (25 µg/ml) instead of oligonucleotide is measured with the BG-Cy3 assay. The reaction rate is determined by fitting the obtained data to a monoexponential increase to maximum.

[3] = compared to wild type hAGT; literature; cited from earlier work
DNA = DNA binding in vitro (co-purified DNA, UV spectroscopy); parameters: species or system E. coli; conditions: co-purified DNA; compared to wild type hAGT or PGEG-hAGT
Description: as §1
For comparing the DNA binding properties of the protein in vitro, the harvested cells are resuspended, and the GST fusion protein is purified following the same method but in a buffer containing 50 mM phosphate, 0.1 M NaCl, 1 mM DTT. In the dialysed samples, the amount of subsequently co-purified DNA is estimated by UV spectroscopy. Spectra are recorded using a Perkin Elmer Lambda 10. The content of DNA corresponds to the ratio of the extinctions at 280 and 260 nm. […]

[4] = Stability after reaction with BG-FL; assay type: physicochemical; conditions: over 7 days
Description: Stability before reaction is determined for the mutant AGT or for a mutant AGT fusion protein by incubating purified samples in buffered aqueous solution for up to two weeks at 4° C. and up to six months at −20° C. At several time points, aliquots are taken and concentration of reactive AGT is estimated as described by Juillerat et al., Chem Biol 10:313-317, 2003. Stability for wild type AGT and the AGT mutant after reaction with a labelled substrate and after subsequent separation from unreacted substrate is determined by quantifying the concentration of the label in the soluble fraction over up to two weeks at 4° C. and up to three months at −20° C.
Stability after reaction: The vector pBAD/H is A (Invitrogen) is modified by cloning synthetic oligonucleotides (SEQ ID NO:29 and SEQ ID NO:30) between the NcoI and HindIII sites to include a 12×His-tag and SbfI and AscI cloning sites. The gene of AGTM is amplified with primers SEQ ID NO:31 and SEQ ID NO:32 and cloned between the SbfI/AscI sites into this vector. Wild type AGT and mutant AGT (Lys125Ala, Ala127Thr, Arg128Ala, Asn157Gly, Ser159Glu) are amplified with primers SEQ ID NO:31 and SEQ ID NO:33 and cloned into this vector. Protein expression is carried out in E. coli strain Top 10. An exponentially growing culture is induced with 0.2% arabinose, and the expression is carried out for 16 hours at 28° C. The cells are lysed by adding buffer to 10 ml/g containing 0.5 M NaCl, 80 mM imidazole, 1% Triton, 250 µM PMSF, 1 mM […]-mercaptoethanol, 5 mg/ml lysozyme, 20 µg/ml DNase and stirring for 45 min. […]
The AGT proteins at 10 µM) are quantitatively reacted with fluorescein-modified O^6-benzyl-guanine (substance 5 of Juillerat et al, Chem Biol 10:313-317, 2003, BG-FL, 20 µM) and purified over a size exclusion column (Econopac 10 DG, Bio-Rad) and incubated for 7 days. […] The fluorescence of the supernatant is measured with a Victor2 fluorescence plate reader (Perkin Elmer, excitation/emission at 485/535 nm).

[5] = Activity assay with biotinylated O^6-benzylguanine (BG-Bt), Western blotting; assay type: biochemical; conditions: statement in words
In short: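 Purified mutant GST-AGT (0.2 μM) reacted with 1 μM biotinylated O^6-benzylguanine in 50 mM HEPES pH 7.2, 1 mM DTT at room temperature. Time-point aliquots quenched with O^6-benzylguanine in SDS buffer. Biotinylated protein detected by Western blot with neutravidin-peroxidase, band intensity quantified.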

CHO cells = experiment: Selective labelling in cells after CPTG pre-incubation; assay type: cell-based; conditions: 5 µM CPTG 10 min, then 5 µM fluorescent substance 4 20 min
From the text: In a further experiment, the mutant AGTM as described in Example 6 is amplified with the primers SEQ ID NO:34 and SEQ ID NO:36 and cloned between the NheI and BgIII sites of the vector pEGFP-Nuc. The […]-galactosidase gene is amplified with the primers SEQ ID NO:37 and SEQ ID NO:38 and subcloned into this vector via BgIII/BamHI to result in a vector with an AGTM-[…]-Gal fusion gene. The hAGT gene is amplified by the principle described under Example 1 with the primers SEQ ID NO:39, SEQ ID NO:40, SEQ ID NO:34, and SEQ ID NO:35 and cloned via NheI/BgIII into pEGFP-Nuc to result in an AGT-NLS3 fusion gene coding for the mutation Gly160Trp. After transient expression of both AGT mutants in parallel, the cells are incubated with 5 µM CPTG for 10 min and subsequently with 5 µM of substance 4 of Juillerat et al., Chem Biol 10:313-317, 2003, for 20 min. The cells are washed and imaged as described under Example 1.

Row | Molecule | extent of reaction with N^9-modified BG derivatives [1] | activity in presence of BG-modified oligonucleotide [2] | reduction of reaction rate to BG-Cy3 in presence of DNA (salmon sperm DNA) [fold] | activity against benzylguanine derivatives (factor) [3] | DNA binding (DNA) | loss of soluble fluorescent protein [4] | activity towards O^6-benzylguanine substrates [5] | reaction with CPTG inside cells (CHO cells)
1 | B1 | reacts efficiently | less than 3% | 5 | approximately 20 |  |  |  | 
2 | B2 |  |  |  |  | at least ten times reduced DNA binding | about 60% | retains activity | 
3 | B3 |  |  |  | somewhat more reactive |  |  |  | efficiently reacts with CPTG inside cells
